Experimental data published in patent publication US20160200815A1 (JOUNCE THERAPEUTICS, published 2016).
Residue numbers refer to the chain shown, from its start.

B1: mAb48 (antibody, V domains shown)
VH: QIQLQQSGPELVTPGTSVKISCKASGYTFTDYYINWVKQRPGQGLEWIGWIYPGSGNTKYNEKFKGKATLTVDTSSSIAYMHLSSLTSEDSAVYFCAGDRFDYWGQGTTLTVSS
VL: QIVLTQSPAIMSASPGEKVTLTCSASSGVSSSYLYWYQQKPGSSPKLWIYSTSNLASGVPARFSGSGSGTSYSLTISNMETEDAASYFCHQWSNSPYTFGGGTKLEIK
notes: Mouse hybridoma antibody
B2: mAb91 (antibody, V domains shown)
VH: DVQFQESGPGLVKPSQSLSLTCSVTGYSITSGYYWNWIRQFPGNKLEWMGYISYDGSNNYNPSLKNRISITRDTSKNQFFLKLNSVTTEDTATYYCGRDGPYYYGSSYGYFDVWGTGTTVTVSS
VL: DIVMTQAESSVPVTPGESVSISCRSSKSLLHSNGNTYLYWFLQRPGQSPQLLIHRMSNLASGVPDRFSGSGSGTAFTLRISRVEAEDMGVYYCMQHLEYPCTFGGGTKLEIK
notes: Mouse hybridoma antibody
B3: mAb22 (antibody, V domains shown)
VH: EVQLVESGGDLVKPGGSLKLSCAASGFTFSNHGMSWVRQTPDKRLEWVATISSGGSNTYFPDSVKGRFTISRDNVKNSLYLQMSSLKSEDTAMYYCARHGTSMIKEWFAYWGQGTLVTVSA
VL: DIVMTQSPVTLSVTPGDRVSLSCRASQSIGDYLHWYQQKSHESPRLLIKYASQSISGIPSRFSGSGSGSDFTLNINSVEPEDVGVYYCQHSHSFPPTFGGGTRLEIK
notes: Mouse hybridoma antibody
B4: mAb58 (antibody, V domains shown)
VH: QIQLVQSGPELKKPGETVKISCKASGYTFTTYGMSWVKQAPGKGLKLMGWINTYSGAPTYADDFKGRFAFSLETSASAAYLQINNLKNEDTATYFCARKPPHYYVNSFDYWGQGTTLTVSS
VL: B3 VL with V9A, G30S, N74S, H90N, S91G, P96Y, R103K
B5: mAb15 (antibody, V domains shown)
VH: QVQLKESGPGLVAPSQSLSITCTVSGFSLTGYGVTWVRQPPGKGLEWLGMIWGDGNTDYNSGLKSRLNISKDNSKSQVFLKMNSLQTDDTARYYCARSYYYGPPDYWGQGTTLTVSS
VL: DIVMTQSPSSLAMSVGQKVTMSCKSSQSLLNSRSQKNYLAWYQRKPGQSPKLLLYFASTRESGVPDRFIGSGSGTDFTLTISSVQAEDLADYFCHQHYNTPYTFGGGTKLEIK
notes: also called JTx mAb 15; TIM-3 mAb15

Target: T1, hTIM3-Fc murine FG loop (human, FG loop replaced by mouse TIM-3)
T1 construct: Whole construct: chimeric ECD, linker and human IgG1 Fc; also called hTIM3-Fc FG loop chimera
Experiment: ELISA, construct coated on plate

Absorbance at 450 nm | Binder
1.53 A450 | B1
1.74 A450 | B2
2.22 A450 | B3
1.9 A450 | B4

Target: T2, hTIM3-Fc murine DE loop (human, DE loop replaced by mouse TIM-3)
T2 construct: Whole construct: chimeric ECD, linker and human IgG1 Fc; also called hTIM3-Fc DE loop chimera
Experiment: ELISA, construct coated on plate

Absorbance at 450 nm | Binder
1.01 A450 | B2
1.29 A450 | B5
0.855 A450 | B4

Target: T3, hTIM3-Fc murine BC loop (human, BC loop replaced by mouse TIM-3)
T3 construct: Whole construct: chimeric ECD, linker and human IgG1 Fc; also called hTIM3-Fc BC loop chimera
Experiment: ELISA, construct coated on plate

Absorbance at 450 nm | Binder
1.3 A450 | B1
1.44 A450 | B2
2.06 A450 | B3
1.83 A450 | B4

Target: T4, hTIM3-Fc murine C′C″ loop (human, C′C″ loop replaced by mouse TIM-3)
T4 construct: Whole construct: chimeric ECD, linker and human IgG1 Fc; also called hTIM3-Fc C′C″ loop chimera
Experiment: ELISA, construct coated on plate

Absorbance at 450 nm | Binder
0.338 A450 | B4

Target: T5, hTIM3-Fc murine CC′ loop (human, CC′ loop replaced by mouse TIM-3)
T5 construct: Whole construct: chimeric ECD, linker and human IgG1 Fc; also called hTIM3-Fc CC′ loop chimera
Experiment: ELISA, construct coated on plate

Absorbance at 450 nm | Binder
0.247 A450 | B1
0.502 A450 | B2
0.91 A450 | B3
1.39 A450 | B4

Target: T6, hTIM3-Fc WT (human)
T6 construct: also called hTIM-3-hFc
Experiment: ELISA, construct coated on plate

Absorbance at 450 nm | Binder
1.39 A450 | B1
1.57 A450 | B2
2.13 A450 | B3
1.39 A450 | B4
